The test concerns the target full length TCF1. As to the kind of experiment: cell-based or functional assay.

β-catenin (wild type), sequence (P35222 2-781): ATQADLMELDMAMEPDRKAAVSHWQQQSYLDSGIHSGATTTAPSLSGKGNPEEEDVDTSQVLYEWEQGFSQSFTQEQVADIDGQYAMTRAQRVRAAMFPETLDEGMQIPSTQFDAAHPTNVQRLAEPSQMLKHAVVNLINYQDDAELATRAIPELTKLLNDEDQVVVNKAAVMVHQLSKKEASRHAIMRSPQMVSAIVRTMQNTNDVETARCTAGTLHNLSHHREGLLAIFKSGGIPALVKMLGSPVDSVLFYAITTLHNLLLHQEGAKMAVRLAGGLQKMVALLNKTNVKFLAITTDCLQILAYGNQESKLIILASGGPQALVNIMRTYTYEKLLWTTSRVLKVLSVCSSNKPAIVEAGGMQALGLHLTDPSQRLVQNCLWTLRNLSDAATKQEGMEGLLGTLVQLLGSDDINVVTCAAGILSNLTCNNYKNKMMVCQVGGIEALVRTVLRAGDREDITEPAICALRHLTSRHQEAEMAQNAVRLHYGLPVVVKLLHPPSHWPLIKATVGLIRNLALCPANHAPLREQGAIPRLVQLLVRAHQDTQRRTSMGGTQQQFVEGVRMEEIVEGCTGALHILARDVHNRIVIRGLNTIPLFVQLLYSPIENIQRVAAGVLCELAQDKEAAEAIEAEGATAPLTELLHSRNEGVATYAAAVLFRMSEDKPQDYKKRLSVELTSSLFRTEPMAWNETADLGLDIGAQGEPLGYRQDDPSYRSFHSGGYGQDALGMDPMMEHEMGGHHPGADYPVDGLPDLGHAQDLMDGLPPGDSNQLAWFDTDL

As for β-catenin (wild type), the activation of luciferase reporter gene driven by the LEF1 promoter (-672, +305), co-transfection in 2017 T lymphocytes came out at 7 fold.

For the origin of these results see patent publication US7413873.
